This experiment addresses T1, His6-RpoA (alpha subunit of the RNA polymerase) (UniProt P0A7Z4 1-329).
T1 construct: RNA polymerase alpha subunit RpoA; also called His-tagged RpoA; α-subunit of the RNAP; source: E. coli BL21 (DE3) containing pET28-RpoA, purified as described previously
The experiment can be described thus: pull-down; 50 µg each of purified MBP or MBP-PerA and His6-RpoA in interaction buffer (2X: 100 mM NaH2PO4, 600 mM NaCl, 40 mM imidazol, 0.5% NP-40, 20% glycerol, pH 8.0), 30 min on ice, then 50 µl amylose resin 2 h at ~4 °C; Western blot with anti-MBP antibody or anti-His6-HRP probe. As to conditions: both partners purified. (In general: In western blotting, separated proteins are transferred to a membrane and probed.)

T1 sequence (P0A7Z4 whole entry): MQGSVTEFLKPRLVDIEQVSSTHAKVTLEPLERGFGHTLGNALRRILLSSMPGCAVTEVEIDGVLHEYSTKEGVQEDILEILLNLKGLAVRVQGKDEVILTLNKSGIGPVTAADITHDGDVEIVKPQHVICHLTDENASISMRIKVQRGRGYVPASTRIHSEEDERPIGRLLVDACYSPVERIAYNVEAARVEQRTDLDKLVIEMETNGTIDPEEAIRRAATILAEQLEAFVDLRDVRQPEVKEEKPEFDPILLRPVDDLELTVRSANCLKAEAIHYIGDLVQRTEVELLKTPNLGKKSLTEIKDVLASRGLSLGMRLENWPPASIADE

B1: MBP-PerA fusion (natural protein)
chain: MLTSKKEMQSSENKQEENLALLLTNYISYQNIVIFTGGNQFKIRNKKEFTEYTIESNSLFFLAKNTHWDMEIVGIDNSNPYRKIIIDDALIKLLHSISSDDSCYVKKKIFTANLNEMQLNIVSNIITDIKYSGNNKKIFKILYLLSFFNDYNDIVNVILSASSKSIVDRVIKVIELDISKNWKLGDVSSSMFMSDSCLRKQLNKENLTFKKIMLDIKMKHASLFLRTTDKNIDEISCLVGFNSTSYFIKVFKEYYNTTPKKYNGVYSITQGTLP
notes: 274 residues; pMalC2xa derivative; also called BfpT; MBP-PerA chimera; source: expressed from pMALT2; over-expressed in EPEC E2348/69 ΔperA with 0.3 mM IPTG, in soluble lysate, for the co-purification
B1: the binding result is reported as “binds”.

The record behind these values is publication PMC8058060, “The transcriptional activator of the bfp operon in EPEC (PerA) interacts with the RNA polymerase alpha subunit” (Scientific Reports, 2021).
